Columns and labels:
[1] = target: T1, recombinant human OX40L (extracellular domain, R&D Systems) (human, UniProt P23510 51-183); assay: cell-based or functional assay
T1 sequence: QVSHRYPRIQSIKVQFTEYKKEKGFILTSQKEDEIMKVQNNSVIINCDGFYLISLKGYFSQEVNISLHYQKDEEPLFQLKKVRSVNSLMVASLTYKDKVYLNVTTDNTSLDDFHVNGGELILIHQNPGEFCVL

[2] = target: T2, biotinylated hOX40L (R&D Systems, biotinylated in house) (human, UniProt P23510 51-183, biotinylated with Sulfo-NHS-LC-Biotin, sites not stated); assay: hOX40L/hOX40 AlphaScreen, assay 3, native
T2 construct: same bought protein as m10, biotinylated; also called biotinylated OX40L
T2 sequence: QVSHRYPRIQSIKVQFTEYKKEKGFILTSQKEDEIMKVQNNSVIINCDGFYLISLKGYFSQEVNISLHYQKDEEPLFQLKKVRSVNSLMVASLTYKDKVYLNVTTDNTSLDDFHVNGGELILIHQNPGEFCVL
Procedure: (§1) Next, streptavidin donor beads were added and incubated for an additional 1 hour. Fluorescence was measured by reading plates on the EnVision Multilabel Plate Reader using an excitation wavelength of 680 nm and an emission wavelength of 520 nm.
(§2) In the TSA assay, Nanobodies were diluted to a concentration of 0.2 mg/ml and melting temperature (Tm) was determined at different pH by stepwise increase in temperature in presence of Sypro Orange, a dye that binds to […] residues that become exposed upon unfolding of the protein, using the Lightcycler (Roche) for detection. […] In SEC analysis, the Nanobodies were analyzed on a Phenomenex matrix to allow detection of multimers, aggregates or ‘stickyness’.

[3] = target: T2, biotinylated hOX40L (R&D Systems, …); assay: hOX40L/hOX40 AlphaScreen, assay 2, native
Procedure: as §1, §2

[4] = target: T2, biotinylated hOX40L (R&D Systems, …); assay: hOX40L/hOX40 AlphaScreen, assay 1, native
Procedure: Next, streptavidin donor beads were added and incubated for an additional 1 hour. Fluorescence was measured by reading plates on the EnVision Multilabel Plate Reader using an excitation wavelength of 680 nm and an emission wavelength of 520 nm. […]

[5] = target: T2, biotinylated hOX40L (R&D Systems, …); assay: hOX40L/hOX40 AlphaScreen, assay 2, heated at Tm+10 C
Procedure: as §1, §2

[6] = target: T2, biotinylated hOX40L (R&D Systems, …); assay: hOX40L/hOX40 AlphaScreen, assay 3, heated at Tm+10 C
Procedure: as §1, §2

[7] = target: T2, biotinylated hOX40L (R&D Systems, …); assay: AlphaScreen, 31 pM biotinylated hOX40L + 80 pM OX40/Fc
Procedure: as §1

[8] = target: T3, full length human OX40L expressed on CHO cells (human, UniProt P23510 1-183); assay: cell-based or functional assay
T3 sequence: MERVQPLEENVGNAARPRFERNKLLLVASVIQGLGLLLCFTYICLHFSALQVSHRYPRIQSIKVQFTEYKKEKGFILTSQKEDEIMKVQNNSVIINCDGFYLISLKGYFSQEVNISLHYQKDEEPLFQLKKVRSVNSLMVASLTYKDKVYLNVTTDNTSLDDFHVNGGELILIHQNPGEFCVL

[9] = target: T1, recombinant human OX40L (extracellular …); assay: SPR, second injection after competitor OX40L15B07
Procedure: (§3) In addition, it was investigated to what extend the 7 anti-OX40L Nanobodies have a different or identical or overlapping epitope. Standard conditions were as described above. […] 1300 RU. A dual injection was performed at 10 μl/min for 2 min, starting with 500 nM of the first Nanobody, followed by 500 nM of the second Nanobody. After 10 min dissociation, regeneration of the surface was performed by injection of 50 mM NaOH for 5-20 sec at 100 μl/min.

[10] = target: T1, recombinant human OX40L (extracellular …); assay: SPR, second injection after competitor OX40L19D08
Procedure: as §3

[11] = target: T1, recombinant human OX40L (extracellular …); assay: SPR, second injection after competitor OX40L01E10
Procedure: as §3

[12] = target: T1, recombinant human OX40L (extracellular …); assay: SPR, after second injection of buffer HBS-EP+
Procedure: as §3

[13] = target: T3, full length human OX40L expressed on …; assay: competition FACS, 3.1 nM hOX40/Fc on hOX40L expressing cells
[14] = target: T1, recombinant human OX40L (extracellular …); assay: SPR, second injection after competitor OX40L01E07
Procedure: as §3

[15] = target: T1, recombinant human OX40L (extracellular …); assay: SPR, second injection after competitor OX40L19A07
Procedure: as §3

[16] = target: T1, recombinant human OX40L (extracellular …); assay: SPR, second injection after competitor OX40L01B11
Procedure: as §3

[17] = target: T4, cynomolgus OX40L expressed on CHO cells (cynomolgus monkey, UniProt P23510 1-183 (human entry)); assay: FACS binding to CHO cells, anti-c-myc detection
T4 construct: also called cynoOX40L; CHO-cynoOX40L
T4 chain: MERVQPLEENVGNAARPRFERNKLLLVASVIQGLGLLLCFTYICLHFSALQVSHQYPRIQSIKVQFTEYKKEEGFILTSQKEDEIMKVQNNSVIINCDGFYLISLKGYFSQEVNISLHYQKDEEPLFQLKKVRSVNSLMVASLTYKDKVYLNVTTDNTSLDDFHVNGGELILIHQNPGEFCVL
Procedure: (§4) Transfection of CHO K1 with the respective expression plasmid DNA and selection of clones with high expression levels was performed as described in Example 1. Binding of the Nanobodies to the cell surface expressed OX40L was assessed by FACS analysis of cells as described below.
(§5) After washing bound Nanobodies were detected in FACSArray™ using mouse anti-c-myc and PE conjugated goat anti-mouse IgG.

[18] = target: T3, full length human OX40L expressed on …; assay: FACS binding to CHO cells, anti-c-myc detection
Procedure: as §4, §5

hCD30L = target: T5, hCD30L (human, UniProt P32971 63-234); assay: competition ELISA on neutravidin captured biotinylated hOX40L
T5 sequence (looked up): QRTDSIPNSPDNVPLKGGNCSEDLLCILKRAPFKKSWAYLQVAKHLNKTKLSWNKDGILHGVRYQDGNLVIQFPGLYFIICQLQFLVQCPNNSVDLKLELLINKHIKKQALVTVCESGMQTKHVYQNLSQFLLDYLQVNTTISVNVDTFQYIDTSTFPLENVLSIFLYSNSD
Procedure: (§6) The binding of OX40L blocking Nanobodies to other TNF family members was tested in a competition ELISA.
(§7) Detection was done using sTMB (SDT Reagents, Baesweiler, Germany), the reaction was stopped with 1M HCl and absorbance was determined at 450 nm.

hCD40L = target: T6, hCD40L (human, UniProt P29965 113-261); assay: as above
T6 sequence (looked up): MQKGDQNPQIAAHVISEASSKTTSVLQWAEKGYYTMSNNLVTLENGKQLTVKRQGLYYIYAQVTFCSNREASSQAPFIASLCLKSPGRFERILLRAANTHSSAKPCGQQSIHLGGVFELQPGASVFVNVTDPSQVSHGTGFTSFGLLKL
Procedure: as §6, §7

hTNF-alpha = hTNF-alpha (human, UniProt P01375 77-233); assay: as above
Chain of hTNF-alpha (P01375 77-233 limits assumed): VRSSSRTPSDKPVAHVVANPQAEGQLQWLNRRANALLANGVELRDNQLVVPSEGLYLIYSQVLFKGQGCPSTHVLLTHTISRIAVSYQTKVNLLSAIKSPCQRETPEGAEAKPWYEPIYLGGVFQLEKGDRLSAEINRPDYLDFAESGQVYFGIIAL
Procedure: as §6, §7

[19] = target: T7, human Receptor Activator for Nuclear Factor kappa B Ligand (human, UniProt O14788 143-317, limits assumed); assay: as above
T7 construct: also called hRANKL; RANKL
T7 sequence (looked up): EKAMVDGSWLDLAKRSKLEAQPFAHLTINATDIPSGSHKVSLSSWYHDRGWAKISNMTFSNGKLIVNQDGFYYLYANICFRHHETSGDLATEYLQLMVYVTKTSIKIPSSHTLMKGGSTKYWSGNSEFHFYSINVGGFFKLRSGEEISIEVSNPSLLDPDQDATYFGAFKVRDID
Procedure: as §6, §7

[20] = target: T8, human tumor necrosis factor-related apoptosis inducing ligand (human, UniProt P50591 114-281); assay: as above
T8 construct: also called hTRAIL; TRAIL
T8 sequence (P50591 114-281 limits assumed): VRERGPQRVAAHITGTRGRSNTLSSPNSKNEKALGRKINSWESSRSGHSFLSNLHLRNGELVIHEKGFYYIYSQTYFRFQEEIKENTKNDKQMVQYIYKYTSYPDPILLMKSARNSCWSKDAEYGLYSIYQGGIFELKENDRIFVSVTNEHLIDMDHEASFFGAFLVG
Procedure: as §6, §7

[21] = target: T1, recombinant human OX40L (extracellular …); assay: SPR, second injection after competitor OX40L18E09
Procedure: as §3

[22] = target: T2, biotinylated hOX40L (R&D Systems, …); assay: AlphaScreen, 120 pM biotinylated hOX40L + 0.2 nM hOX40/Fc
Procedure: as §1

[23] = target: T3, full length human OX40L expressed on …; assay: competition FACS with hOX40/Fc on CHO-hOX40L
Procedure: The competition FACS assay was performed as described in example 2.

B1: OX40L040 (VHH, not shown: small tags and cut ends)
VHH: DVQLVESGGGLVQPGGSLRLSCAASRSIGRLDRMGWYRHRTGEPRELVATITGGSSINYGDFVKGRFTISRDNSKNTVYLQMNSLRPEDTAVYYCNFNKYVTSRDTWGQGTLVTVSS
IC50, T cell assay with rec. hOX40L [1]: 9 nM
IC50 [2]: 0.102 nM
IC50 [3]: 0.092 nM
IC50 [4]: 0.046 nM
IC50 [5]: 0.084 nM
IC50 [6]: 0.082 nM

B2: OX40L01E10 (VHH)
VHH: EVQLVESGGGLVQAGDSLRLSCAASGLTFSSFAMGWFRQAPGKEREFVAAISRSGYGTSEADSVRDRFIISRDNAKNTVTLHLSRLKPEDTAVYYCAAEHTLGRPSRSQINYLYWGQGTQVTVSS
notes: monovalent Nanobody from E. coli; not shown: C-terminal c-myc and His6 tag
IC50 [7]: 0.264 nM
IC50, IL4 production, T-cell activation assay, donor 1 [8]: 110 nM
IC50, IL4 production, T-cell activation assay, donor 2 [8]: 159 nM
IC50, IL4 production, T-cell activation assay, donor 3 [8]: 27 nM
IC50, IL4 production, T-cell activation assay, donor 4 [8]: 12 nM
Binding Level sample 2 (RU) [9]: 190 RU
Binding Level sample 2 - sample 1 (RU) [9]: 5 RU
Binding Level sample 2 (RU) [10]: 202 RU
Binding Level sample 2 - sample 1 (RU) [10]: -13 RU
Binding Level sample 2 (RU) [11]: 215 RU
Binding Level sample 2 - sample 1 (RU) [11]: 8 RU
Binding Level sample 2 (RU) [12]: 185 RU
Binding Level sample 2 - sample 1 (RU) [12]: -26 RU
IC50 [13]: 9.11 nM
Binding Level sample 2 (RU) [14]: 193 RU
Binding Level sample 2 - sample 1 (RU) [14]: 5 RU
Binding Level sample 2 (RU) [15]: 183 RU
Binding Level sample 2 - sample 1 (RU) [15]: 17 RU
Binding Level sample 2 (RU) [16]: 342 RU
Binding Level sample 2 - sample 1 (RU) [16]: -7 RU
EC50 [17]: 5.54 nM
EC50 [18]: 3.77 nM
binding result (hCD30L): no binding (tested: starting from 100 fold molar excess)
binding result (hCD40L): no binding (tested: starting from 100 fold molar excess)
binding result (hTNF-alpha): no binding (tested: starting from 100 fold molar excess)
binding result [19]: no binding (tested: starting from 100 fold molar excess)
binding result [20]: no binding (tested: starting from 100 fold molar excess)
Binding Level sample 2 (RU) [21]: 176 RU
Binding Level sample 2 - sample 1 (RU) [21]: -2 RU
IC50 [22]: 0.49 nM
IC50 [23]: 12 nM

Reference: patent US20150218281A1 (Ablynx, published 2015)
